Molecular target: HIV-1 integrase (Human immunodeficiency virus 1 (BH10)) (UniProt P03366)
Assay: FP filter
[1] = 50 mM NaCl, stated about same Kd as 30N RNA
[2] = nitrocellulose filter, 250 mM NaCl, printed as 20x10^-6, data not shown

Substance | Kd [1] [nM] | Kd [2] [nM]
U5 21-mer ds | 25 | > 20000
U5 21-mer ss | 25 | > 20000

Reference: US5587468
